Three molecules from patent publication US20210079109A1 (Regeneron, published 2021) can be followed below.

In test [1] the target is T1, human CD63 (human, UniProt P08962 2-238).
T1 construct: stably transfected in NIH3T3/hCD63; The cell line is named under assay; also called hCD63
T1 sequence: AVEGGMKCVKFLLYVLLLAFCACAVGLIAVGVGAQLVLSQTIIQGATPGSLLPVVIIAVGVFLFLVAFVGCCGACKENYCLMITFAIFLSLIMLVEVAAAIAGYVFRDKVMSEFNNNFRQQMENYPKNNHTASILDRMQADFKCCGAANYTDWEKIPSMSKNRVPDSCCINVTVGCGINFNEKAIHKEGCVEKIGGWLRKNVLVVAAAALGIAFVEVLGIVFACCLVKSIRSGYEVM
Briefly: ECL, NIH3T3/hCD63 cells. A digest of the protocol:
(§1)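 Detached cells (~2.0×10⁴/well: NIH3T3/hCD63, LNCAP, U87MG, or parental NIH3T3 as negative control) were plated on carbon-electrode plates and blocked with 2% BSA. Anti-CD63 or isotype antibodies (1.7 pM–100 nM, in duplicate) were bound 1 h at RT, then washed. Signal read as electrochemiluminescence.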

Test [2] has as its target T1, human CD63. Briefly: cell-based or functional assay.
The target in test [3] is T1, human CD63. Briefly: ECL, LNCAP cells. The gist of the method:
as §1

The target of test [4] is T1, human CD63. The test is described as follows: ECL, U87MG cells. A digest of the protocol: as §1
The target of test [5] is T2, recombinant human CD63 extracellular loop 2 expressed with a C-terminal human Fc tag (human).
T2 construct: also called hCD63 EC loop 2-hFc; human CD63 EC loop 2-Fc
The test is described as follows: SPR Biacore, mAb captured, 25C. A digest of the protocol:
(§2)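 Anti-CD63 mAbs captured on anti-mouse Fc or anti-human Fab surfaces; CD63 EC2 reagents flowed in HBS-ET, pH 7.4, at 25° C or 37° C. ka and kd from 1:1 binding model with mass transport limitation; KD and t½ calculated from kinetic rates.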
(Surface plasmon resonance follows binding to a sensor surface in real time, without labels.)

Test [6] has as its target T3, recombinant human CD63 extracellular loop 2 expressed with a C-terminal Myc-Myc-hexahistidine (human).
T3 construct: also called hCD63 EC loop 2-MMH; human CD63 EC loop 2-MMH
The test is described as follows: SPR Biacore, mAb captured, 25C. A digest of the protocol: as §2

T3 sequence (chain, as listed by the source limits assumed): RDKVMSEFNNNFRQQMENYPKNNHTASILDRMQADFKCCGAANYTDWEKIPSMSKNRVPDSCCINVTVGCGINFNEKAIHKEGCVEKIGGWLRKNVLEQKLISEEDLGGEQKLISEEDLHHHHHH
T2 sequence (chain, as listed by the source limits assumed): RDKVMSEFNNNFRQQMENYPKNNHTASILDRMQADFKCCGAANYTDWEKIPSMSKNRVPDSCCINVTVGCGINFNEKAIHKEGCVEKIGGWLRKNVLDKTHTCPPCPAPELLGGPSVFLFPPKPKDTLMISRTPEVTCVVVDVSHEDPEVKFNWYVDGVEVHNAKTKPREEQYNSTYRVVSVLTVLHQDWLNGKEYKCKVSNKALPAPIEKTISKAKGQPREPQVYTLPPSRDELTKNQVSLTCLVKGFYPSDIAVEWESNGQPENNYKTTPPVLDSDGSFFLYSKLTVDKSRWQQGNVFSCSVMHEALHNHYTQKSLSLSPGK

B1: H2M12450N (antibody, V domains shown)
VH: QVQLQESGPKVVKPSETLSLTCTVSGGSISSYYWNWIRQSPGKGLEWIGYTKRGYTDYNPSLRSRVTISEDTSKNQFSLRISSVTAADTAVYYCAQMGWGSHAFDMWGQGTMVAVSS
VL: EIVLTQSPGTLSLSPGERATLSCRASQSVNSRYLAWYQQKPGQAPRLLIYGASSRATGIPDRCSGSGSGTDFTLTISRLEPEDFAVYYCQQYGSSPWTFGQGTKVEIK
notes: also called H2aM12450N; mAb12450
Broadly, the EC50 is the concentration at which the effect is half-maximal. The low end stands for a more potent agent, the high end for a less potent agent. A word on the Kd: it is the free concentration of one partner at which half of the binding sites on the other are occupied at equilibrium, for simple one-to-one binding. Broadly, the koff is the first-order rate constant of dissociation. As a reminder, the kon is a measure of how fast the partners come together. With B1, in test [1], the concentration giving a half-maximal response (EC50) worked out at 0.97 nM and the “binding ratio at 3.7 nM vs NIH3T3” value was found to be 281 fold. For the same molecule, in test [2], the “% Internalization, T47D cells” value amounted to 60.9% and the “Total Internalized RFU, T47D cells” value amounted to 1.79e+06 RFU. Moreover, in test [3], the half-maximal effective concentration (EC50) worked out at 1.4 nM and the “binding ratio at 3.7 nM vs NIH3T3” value was 20 fold. For the same molecule, in test [4], the EC50 stood at 1.4 nM and the “binding ratio at 3.7 nM vs NIH3T3” value was 272 fold. In test [5], the “100 nM Ag Bound (RU)” value was 134 RU, the Kd was 0.15 nM, the koff amounted to 4.66e-05 s⁻¹ and the kon is 320000 M⁻¹ s⁻¹. The t1/2 in test [5] was 248 min. In test [6], the “100 nM Ag Bound (RU)” value was determined as 65 RU, the Kd was 1.23 nM, the koff turned out to be 0.000279 s⁻¹ and the kon was 227000 M⁻¹ s⁻¹. For the same molecule, the t1/2 in test [6] amounted to 41 min.

B2: H2M12395N (antibody, V domains shown)
VH: QVQLQESGPRLVKPSETLSLTCIVSGGSISNFYWNWIRQSPGKGLEWIGYFFYTGTIDYNPSLKSRVTISLDTSKNQFSLNLRLLTAADAAVYYCARMGLGANAFDIWGHGTMVTVSS
VL: EIVLTQSPGTLSLSPGERATLSCRASQHVSSNYLAWYQQKPGQAPRLLIYGGSSRATGIPDRFSGSGSGTDFTLTISRLEPADFAVFYCQQYGNSPWTFGQGTKVEMK
notes: also called H2aM12395N
Turning to B2, in test [1], the EC50 was 0.57 nM and the “binding ratio at 3.7 nM vs NIH3T3” value was 91 fold. In test [2], the “% Internalization, T47D cells” value was 73.2% and the “Total Internalized RFU, T47D cells” value amounted to 1.24e+06 RFU. In addition, in test [3], it took 1.7 nM to reach a half-maximal effect (EC50) and the “binding ratio at 3.7 nM vs NIH3T3” value was determined as 7 fold. In test [4], the half-maximal effective concentration (EC50) amounted to 0.95 nM and the “binding ratio at 3.7 nM vs NIH3T3” value came out at 52 fold. In test [5], the “100 nM Ag Bound (RU)” value amounted to 117 RU, the Kd stood at 0.753 nM, the koff is 0.00051 s⁻¹ and the kon came to 677000 M⁻¹ s⁻¹. In test [5], the t1/2 came out at 23 min. Besides, in test [6], the “100 nM Ag Bound (RU)” value is 42 RU, the Kd was found to be 11 nM, the koff stood at 0.00182 s⁻¹ and the on-rate constant (kon) is 166000 M⁻¹ s⁻¹. Moreover, in test [6], the t1/2 came out at 6 min.

B3: H1M12451N (antibody, V domains shown)
VH: QVQLQESGPGLMKPSETLSLTCTVSGGSFSSYYWNWIRQSPGKGLEWIGYIRYSGDTNYKPSLKSRFTISIDTSKNLFSLRLKSVTAADTAVYYCARMGLGSDAFDIWGQGTMVTVSS
VL: EIVLTQSPGTLSLSPGERATLSCRASQSVNNNYLAWYQQKPGQAPRLLIYGVFNRATNIPDRFSGSGSGTDFTLTISRLEPEDFAVYYCQQYGSSPWTFGQGTKVEIK
Turning to B3, in test [1], a half-maximal response (EC50) required 0.29 nM and the “binding ratio at 3.7 nM vs NIH3T3” value was found to be 256 fold. Moreover, in test [2], the “% Internalization, T47D cells” value came out at 73.7% and the “Total Internalized RFU, T47D cells” value is 1.71e+06 RFU. For the same molecule, in test [3], a half-maximal effect (EC50) was put at 0.35 nM and the “binding ratio at 3.7 nM vs NIH3T3” value came to 18 fold. Further, in test [4], the concentration for a half-maximal effect (EC50) turned out to be 0.79 nM and the “binding ratio at 3.7 nM vs NIH3T3” value worked out at 171 fold. In addition, in test [5], the “100 nM Ag Bound (RU)” value worked out at 107 RU, the Kd was 0.704 nM, the koff is 8.4e-05 s⁻¹ and the on-rate (kon) was 119000 M⁻¹ s⁻¹. For the same molecule, the t1/2 in test [5] stood at 138 min. In addition, in test [6], the “100 nM Ag Bound (RU)” value is 52 RU, the Kd amounted to 5 nM, the off-rate (koff) came to 0.00043 s⁻¹ and the on-rate constant (kon) is 85900 M⁻¹ s⁻¹. Moreover, the t1/2 in test [6] was found to be 27 min.
